# Biological target: TRIB3 (tribbles pseudokinase 3), purified protein (UniProt Q96RU7)
# Experiment: FP
# Sequence of TRIB3 (tribbles pseudokinase 3), purified protein (Q96RU7 whole entry): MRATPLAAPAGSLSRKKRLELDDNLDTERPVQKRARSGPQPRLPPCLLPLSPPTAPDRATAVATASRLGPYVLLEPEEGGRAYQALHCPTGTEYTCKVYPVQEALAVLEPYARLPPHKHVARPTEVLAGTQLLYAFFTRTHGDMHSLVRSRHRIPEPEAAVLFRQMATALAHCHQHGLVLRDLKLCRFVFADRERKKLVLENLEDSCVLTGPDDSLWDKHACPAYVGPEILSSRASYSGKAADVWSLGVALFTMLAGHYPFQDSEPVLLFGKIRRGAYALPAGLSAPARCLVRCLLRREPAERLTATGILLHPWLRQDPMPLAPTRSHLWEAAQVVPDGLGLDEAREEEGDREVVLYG
substance,measurement,value
"SAH-JGZ4, stapled JGZ peptide (from UniProt P00533)",IC50,90.3 nM
same,Ki,27.7 nM

# Reference: PMC7374170, “TRIB3-EGFR interaction promotes lung cancer progression and defines a therapeutic target” (Nature Communications, 2020)
